From publication PMC4265266 come the findings set out here.

Values joined by “and” are separate entries in the source; they are usually repeats but may differ in a detail not shown here. Equal entries are not always repeated.

This assay has as its target FLAG-tagged recombinant human butyrylcholinesterase (^FLAGBChE) (human) (UniProt P06276). The assay is described as follows: non-reducing SDS-PAGE with immuno.

For “FLAG-tagged recombinant human butyrylcholinesterase (^FLAGBChE) (from UniProt P06276 29-602) (enzyme)”, the stoichiometry N – broadly, the number of molecules, sites or subunits per partner or assembly – was 2 and 4.
